Results as given in patent publication US9637764B2, “Methods of producing 7-carbon chemicals via carbon chain elongation associated with cyclohexane carboxylate synthesis” (INVISTA North America S.á r.l., priority 2012, dated 2017).

Key:
Type in all cases: biochemical
[1] = ω-transaminase activity assay, reverse direction (7-aminoheptanoate to pimelate semialdehyde), L-alanine formation by RP-HPLC; conditions: cell free extract, 10 mM 7-aminoheptanoate, 10 mM pyruvate, pH=7.5, 25° C., 4 h; against the empty vector control; FIG. 15
Experimental: (§1) A sequence encoding an N-terminal His-tag was added to the genes from Chromobacterium violaceum, Pseudomonas syringae, Rhodobacter sphaeroides, and Vibrio Fluvialis encoding the ω-transaminases of SEQ ID NOs: 8, 10, 11 and 13, respectively (see FIGS. 7F and 7G) such that N-terminal HIS tagged ω-transaminases could be produced. Each of the resulting modified genes was cloned into a pET21a expression vector under control of the T7 promoter and each expression vector was transformed into a BL21[DE3] E. coli host. The resulting recombinant E. coli strains were cultivated at 37° C. in a 250 mL shake flask culture containing 50 mL LB media and antibiotic selection pressure, with shaking at 230 rpm. Each culture was induced overnight at 16° C. using 1 mM IPTG.
(§2) The pellet from each induced shake flask culture was harvested via centrifugation. Each pellet was resuspended and lysed via sonication. The cell debris was separated from the supernatant via centrifugation and the cell free extract was used immediately in enzyme activity assays.
Enzyme activity assays in the reverse direction (i.e., 7-aminoheptanoate to pimelate semialdehyde) were performed in a buffer composed of a final concentration of 50 mM HEPES buffer (pH=7.5), 10 mM 7-aminoheptanoate, 10 mM pyruvate and 100 μM pyridoxyl 5′ phosphate. Each enzyme activity assay reaction was initiated by adding cell free extract of the ω-transaminase gene product or the empty vector control to the assay buffer containing the 7-aminoheptanoate and incubated at 25° C. for 4 h, with shaking at 250 rpm. The formation of L-alanine from pyruvate was quantified via RP-HPLC.

[2] = ω-transaminase activity assay, 7-aminoheptanol to 7-oxoheptanol, L-alanine formation by RP-HPLC; conditions: for ω-transaminase activity for converting 7-aminoheptanol to 7-oxoheptanol: cell free extract, 10 mM 7-aminoheptanol, 10 mM pyruvate, pH=7.5, 25° C., 4 h, against the empty vector control, FIG. 19; for ω-transaminase accepts 7-oxoheptanol and forms 7-aminoheptanol, concluded from reversibility: conclusion given the reversibility of the ω-transaminase activity (Example 2)
Experimental: A nucleotide sequence encoding an N-terminal His-tag was added to the Chromobacterium violaceum, Pseudomonas syringae and Rhodobacter sphaeroides genes encoding the ω-transaminases of SEQ ID NOs: 8, 10 and 11, respectively (see FIGS. 7F and 7G) such that N-terminal HIS tagged ω-transaminases could be produced. The modified genes were cloned into a pET21a expression vector under the T7 promoter. Each expression vector was transformed into a BL21[DE3] E. coli host. Each resulting recombinant E. coli strain were cultivated at 37° C. in a 250 mL shake flask culture containing 50 mL LB media and antibiotic selection pressure, with shaking at 230 rpm. Each culture was induced overnight at 16° C. using 1 mM IPTG.
as §2
Enzyme activity assays in the reverse direction (i.e., 7-aminoheptanol to 7-oxoheptanol) were performed in a buffer composed of a final concentration of 50 mM HEPES buffer (pH=7.5), 10 mM 7-aminoheptanol, 10 mM pyruvate, and 100 μM pyridoxyl 5′ phosphate. Each enzyme activity assay reaction was initiated by adding cell free extract of the ω-transaminase gene product or the empty vector control to the assay buffer containing the 7-aminoheptanol and then incubated at 25° C. for 4 h, with shaking at 250 rpm. The formation of L-alanine was quantified via RP-HPLC.

[3] = ω-transaminase activity assay, forward direction (pimelate semialdehyde to 7-aminoheptanoate), pyruvate formation by RP-HPLC; conditions: for ω-transaminase activity for converting pimelate semialdehyde to 7-aminoheptanoate: cell free extract, 10 mM pimelate semialdehyde, 10 mM L-alanine, pH=7.5, 25° C., 4 h, against the empty vector control, FIG. 16; for ω-transaminase accepts pimelate semialdehyde and synthesizes 7-aminoheptanoate, concluded from the reversibility of the activity: conclusion from confirmed reversibility
Experimental: as §1, §2
Enzyme activity in the forward direction (i.e., pimelate semialdehyde to 7-aminoheptanoate) was confirmed for the transaminases of SEQ ID NO 10, SEQ ID NO 11 and SEQ ID NO 13. Enzyme activity assays were performed in a buffer composed of a final concentration of 50 mM HEPES buffer (pH=7.5), 10 mM pimelate semialdehyde, 10 mM L-alanine and 100 μM pyridoxyl 5′ phosphate. Each enzyme activity assay reaction was initiated by adding a cell free extract of the ω-transaminase gene product or the empty vector control to the assay buffer containing the pimelate semialdehyde and incubated at 25° C. for 4 h, with shaking at 250 rpm. The formation of pyruvate was quantified via RP-HPLC.

[4] = Carboxylate reductase activity assay, N7-acetyl-7-aminoheptanoate to N7-acetyl-7-aminoheptanal (NADPH consumption, absorbance at 340 nm); conditions: purified enzyme enhanced by the gene product of sfp, 2 mM N7-acetyl-7-aminoheptanoate, 1 mM ATP, 1 mM NADPH, pH=7.5, room temperature, 20 min; against the empty vector control; FIG. 12
Experimental: The activity of each of the N-terminal His-tagged carboxylate reductases of SEQ ID NOs: 3, 6, and 7 (see Examples 4, and FIGS. 7B, 7E, and 7F) for converting N7-acetyl-7-aminoheptanoate to N7-acetyl-7-aminoheptanal was assayed in triplicate in a buffer composed of a final concentration of 50 mM HEPES buffer (pH=7.5), 2 mM N7-acetyl-7-aminoheptanoate, 10 mM MgCl2, 1 mM ATP, and 1 mM NADPH. The assays were initiated by adding purified carboxylate reductase and phosphopantetheine transferase or the empty vector control to the assay buffer containing the N7-acetyl-7-aminoheptanoate then incubated at room temperature for 20 min. The consumption of NADPH was monitored by absorbance at 340 nm.

Molecule | ω-transaminase activity for converting 7-aminoheptanoate to pimelate semialdehyde [1] | ω-transaminase activity for converting 7-aminoheptanol to 7-oxoheptanol [2] | ω-transaminase accepts 7-oxoheptanol and forms 7-aminoheptanol, concluded from reversibility [2] | ω-transaminase activity for converting pimelate semialdehyde to 7-aminoheptanoate [3] | ω-transaminase accepts pimelate semialdehyde and synthesizes 7-aminoheptanoate, concluded from the reversibility of the activity [3] | carboxylate reductase activity for converting N7-acetyl-7-aminoheptanoate to N7-acetyl-7-aminoheptanal [4]
SEQ ID NO 11: Rhodobacter sphaeroides ω-transaminase, Genbank Accession No. ABA81135.1 | accepted 7-aminoheptanote as substrate | accepted 7-aminoheptanol as substrate | accept 7-oxoheptanol as substrate | accepted pimelate semialdehyde as substrate | accepted pimelate semialdehyde as substrate and synthesized 7-aminoheptanoate | 
SEQ ID NO 8: Chromobacterium violaceum ω-transaminase, Genbank Accession No. AAQ59697.1 (protein, listed as Chromobacterium violaceum) MQKQRTTSQWRELDAAHHLHPFTDTASLNQAGARVMTRGEGVYLWDSEGNKIIDGMAGLWCVNVGYGRKDFAEAARRQMEELPFYNTFFKTTHPAVVELSSLLAEVTPAGFDRVFYTNSGSESVDTMIRMVRRYWDVQGKPEKKTLIGRWNGYHGSTIGGASLGGMKYMHEQGDLPIPGMAHIEQPWWYKHGKDMTPDEFGVVAARWLEEKILEIGADKVAAFVGEPIQGAGGVIVPPATYWPEIERICRKYDVLLVADEVICGFGRTGEWFGHQHFGFQPDLFTAAKGLSSGYLPIGAVFVGKRVAEGLIAGGDFNHGFTYSGHPVCAAVAHANVAALRDEGIVQRVKDDIGPYMQKRWRETFSRFEHVDDVRGVGMVQAFTLVKNKAKRELFPDFGEIGTLCRDIFFRNNLIMRACGDHIVSAPPLVMTRAEVDEMLAVAERCLEEFEQTLKARGLA | accepted 7-aminoheptanote as substrate | accepted 7-aminoheptanol as substrate | accept 7-oxoheptanol as substrate |  | accepted pimelate semialdehyde as substrate and synthesized 7-aminoheptanoate | 
SEQ ID NO 10: Pseudomonas syringae ω-transaminase, Genbank Accession No. AAY39893.1 (protein, listed as Pseudomonas syringae) MSANNPQTLEWQALSSEHHLAPFSDYKQLKEKGPRIITRAEGVYLWDSEGNKILDGMSGLWCVAIGYGREELADAASKQMRELPYYNLFFQTAHPPVLELAKAISDIAPEGMNHVFFTGSGSEGNDTMLRMVRHYWALKGQPNKKTIISRVNGYHGSTVAGASLGGMTYMHEQGDLPIPGVVHIPQPYWFGEGGDMTPDEFGIWAAEQLEKKILELGVENVGAFIAEPIQGAGGVIVPPDSYWPKIKEILSRYDILFAADEVICGFGRTSEWFGSDFYGLRPDMMTIAKGLTSGYVPMGGLIVRDEIVAVLNEGGDFNHGFTYSGHPVAAAVALENIRILREEKIVERVRSETAPYLQKRLRELSDHPLVGEVRGVGLLGAIELVKDKTTRERYTDKGAGMICRTFCFDNGLIMRAVGDTMIIAPPLVISFAQIDELVEKARTCLDLTLAVLQG | accepted 7-aminoheptanote as substrate | accepted 7-aminoheptanol as substrate | accept 7-oxoheptanol as substrate | accepted pimelate semialdehyde as substrate | accepted pimelate semialdehyde as substrate and synthesized 7-aminoheptanoate | 
SEQ ID NO 13: Vibrio fluvialis ω-transaminase, Genbank Accession No. AEA39183.1 (protein, listed as Vibrio fluvialis) MNKPQSWEARAETYSLYGFTDMPSLHQRGTVVVTHGEGPYIVDVNGRRYLDANSGLWNMVAGFDHKGLIDAAKAQYERFPGYHAFFGRMSDQTVMLSEKLVEVSPFDSGRVFYTNSGSEANDTMVKMLWFLHAAEGKPQKRKILTRWNAYHGVTAVSASMTGKPYNSVFGLPLPGFVHLTCPHYWRYGEEGETEEQFVARLARELEETIQREGADTIAGFFAEPVMGAGGVIPPAKGYFQAILPILRKYDIPVISDEVICGFGRTGNTWGCVTYDFTPDAIISSKNLTAGFFPMGAVILGPELSKRLETAIEAIEEFPHGFTASGHPVGCAIALKAIDVVMNEGLAENVRRLAPRFEERLKHIAERPNIGEYRGIGFMWALEAVKDKASKTPFDGNLSVSERIANTCTDLGLICRPLGQSVVLCPPFILTEAQMDEMFDKLEKALDKVFAEVA | accepted 7-aminoheptanote as substrate |  |  | accepted pimelate semialdehyde as substrate | accepted pimelate semialdehyde as substrate and synthesized 7-aminoheptanoate | 
SEQ ID NO 3: Mycobacterium smegmatis carboxylate reductase, Genbank Accession No. ABK71854.1 (protein, listed as Mycobacterium smegmatis) MTSDVHDATDGVTETALDDEQSTRRIAELYATDPEFAAAAPLPAVVDAAHKPGLRLAEILQTLFTGYGDRPALGYRARELATDEGGRTVTRLLPRFDTLTYAQVWSRVQAVAAALRHNFAQPIYPGDAVATIGFASPDYLTLDLVCAYLGLVSVPLQHNAPVSRLAPILAEVEPRILTVSAEYLDLAVESVRDVNSVSQLVVFDHHPEVDDHRDALARAREQLAGKGIAVTTLDAIADEGAGLPAEPIYTADHDQRLAMILYTSGSTGAPKGAMYTEAMVARLWTMSFITGDPTPVINVNFMPLNHLGGRIPISTAVQNGGTSYFVPESDMSTLFEDLALVRPTELGLVPRVADMLYQHHLATVDRLVTQGADELTAEKQAGAELREQVLGGRVITGFVSTAPLAAEMRAFLDITLGAHIVDGYGLTETGAVTRDGVIVRPPVIDYKLIDVPELGYFSTDKPYPRGELLVRSQTLTPGYYKRPEVTASVFDRDGYYHTGDVMAETAPDHLVYVDRRNNVLKLAQGEFVAVANLEAVFSGAALVRQIFVYGNSERSFLLAVVVPTPEALEQYDPAALKAALADSLQRTARDAELQSYEVPADFIVETEPFSAANGLLSGVGKLLRPNLKDRYGQRLEQMYADIAATQANQLRELRRAAATQPVIDTLTQAAATILGTGSEVASDAHFTDLGGDSLSALTLSNLLSDFFGFEVPVGTIVNPATNLAQLAQHIEAQRTAGDRRPSFTTVHGADATEIRASELTLDKFIDAETLRAAPGLPKVTTEPRTVLLSGANGWLGRFLTLQWLERLAPVGGTLITIVRGRDDAAARARLTQAYDTDPELSRRFAELADRHLRVVAGDIGDPNLGLTPEIWHRLAAEVDLVVHPAALVNHVLPYRQLFGPNVVGTAEVIKLALTERIKPVTYLSTVSVAMGIPDFEEDGDIRTVSPVRPLDGGYANGYGNSKWAGEVLLREAHDLCGLPVATFRSDMILAHPRYRGQVNVPDMFTRLLLSLLITGVAPRSFYIGDGERPRAHYPGLTVDFVAEAVTTLGAQQREGYVSYDVMNPHDDGISLDVFVDWLIRAGHPIDRVDDYDDWVRRFETALTALPEKRRAQTVLPLLHAFRAPQAPLRGAPEPTEVFHAAVRTAKVGPGDIPHLDEALIDKYIRDLREFGLI |  |  |  |  |  | accepted N7-acetyl-7-aminoheptanoate as substrate
